Measurements reported in the supplement of paper PMC6755084.

B1: F1*; the commonest letter at each place (parent)
chain: GAGACCGCAACTGAAAAGTTGTTATCACTTGTCGTAAGACACTTTGGATGGGTTGAAGTTCTGCACGTAGAAGCAAAAGGC

Variants of: B1
Experiment: fraction ligated after 30 min (ligated reads / total reads); higher = more ligase activity
Conditions: with F1*sub RNA substrate (template-directed ligation), 42 °C
Description: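 Chip-synthesised pool of F1* ligase ribozyme variants (all single and double substitutions, single, double and triple deletions in the catalytic core and GAA bulge, plus designed variants) was transcribed with T7 and reacted as a pool with excess substrate F1*sub for 30 min at 42 C in 50 mM EPPS pH 8.5, 25 mM MgCl2. Ligated and unligated bands were separated by PAGE, barcoded by RT and deep sequenced; fraction ligated = ligated reads / total reads per variant, relative activity = FL / FL of wild type (0.826). Sequences are the DNA template of the ribozyme.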

Question: For GAGACCGCAACTGAAAAGTTGTTGTCACTTGTCGTAAGACACATTGGATGGGTTGAAGTTCTGCACGTAGAAGCAAAAGGC [A24G T43A], which fraction ligated is on record?
Answer: 0.765

Question: GAGACCGCAACTGAAAAGTTGTTGTCACTTGTCGTAAGACACCTTGGATGGGTTGAAGTTCTGCACGTAGAAGCAAAAGGC [A24G T43C] was tested. Which fraction ligated did it give?
Answer: 0.694

Question: With GAGACCGCAACTGAAAAGTTGTTGTCACTTGTCGTAAGACACGTTGGATGGGTTGAAGTTCTGCACGTAGAAGCAAAAGGC [A24G T43G] as the variant, how does the fraction ligated read?
Answer: 0.694

Question: For GAGACCGCAACTGAAAAGTTGTTTTCACTTGTCGTAAGACATTTTGGATGGGTTGAAGTTCTGCACGTAGAAGCAAAAGGC [A24T C42T], which fraction ligated is on record?
Answer: 0.792

Question: With GAGACCGCAACTGAAAAGTTGTTTTCACTTGTCGTAAGACAGTTTGGATGGGTTGAAGTTCTGCACGTAGAAGCAAAAGGC [A24T C42G] as the variant, how does the fraction ligated read?
Answer: 0.769

Question: How did the fraction ligated turn out when GAGACCGCAACTGAAAAGTTGTTTTCACTTGTCGTAAGACAATTTGGATGGGTTGAAGTTCTGCACGTAGAAGCAAAAGGC [A24T C42A] was run?
Answer: 0.743

Question: With GAGACCGCAACTGAAAAGTTGTTTTCACTTGTCGTAATACACTTTGGATGGGTTGAAGTTCTGCACGTAGAAGCAAAAGGC [A24T G38T] as the variant, how does the fraction ligated read?
Answer: 0.745

Question: Which fraction ligated does the source give for GAGACCGCAACTGAAAAGTTGTTTTCACTTGTCGTAACACACTTTGGATGGGTTGAAGTTCTGCACGTAGAAGCAAAAGGC [A24T G38C] here?
Answer: 0.685

Question: Which fraction ligated does the source give for GAGACCGCAACTGAAAAGTTGTTTTCACTTGTCGTAAAACACTTTGGATGGGTTGAAGTTCTGCACGTAGAAGCAAAAGGC [A24T G38A] here?
Answer: 0.205

Question: How did the fraction ligated turn out when GAGACCGCAACTGAAAAGTTGTTTTCACTTGTCGTAAGACACTTTGGATGGGTTGAAGTTCTGCACGTAGAAGCAAAAGGC [A24T] was run?
Answer: 0.778

Question: With GAGACCGCAACTGAAAAGTTGTTTTCACTTGTCGTAAGAAACTTTGGATGGGTTGAAGTTCTGCACGTAGAAGCAAAAGGC [A24T C40A] as the variant, how does the fraction ligated read?
Answer: 0.34

Question: For GAGACCGCAACTGAAAAGTTGTTTTCACTTGTCGTAAGATACTTTGGATGGGTTGAAGTTCTGCACGTAGAAGCAAAAGGC [A24T C40T], which fraction ligated is on record?
Answer: 0.769

Question: How did the fraction ligated turn out when GAGACCGCAACTGAAAAGTTGTTTTCACTTGTCGTAAGAGACTTTGGATGGGTTGAAGTTCTGCACGTAGAAGCAAAAGGC [A24T C40G] was run?
Answer: 0.582

Question: GAGACCGCAACTGAAAAGTTGTTTTCACTTGTCGTAAGCCACTTTGGATGGGTTGAAGTTCTGCACGTAGAAGCAAAAGGC [A24T A39C] was tested. Which fraction ligated did it give?
Answer: 0.636

Question: With GAGACCGCAACTGAAAAGTTGTTTTCACTTGTCGTAAGTCACTTTGGATGGGTTGAAGTTCTGCACGTAGAAGCAAAAGGC [A24T A39T] as the variant, how does the fraction ligated read?
Answer: 0.619

Question: With GAGACCGCAACTGAAAAGTTGTTTTCACTTGTCGTAAGGCACTTTGGATGGGTTGAAGTTCTGCACGTAGAAGCAAAAGGC [A24T A39G] as the variant, how does the fraction ligated read?
Answer: 0.793

Question: GAGACCGCAACTGAAAAGTTGTTTTCACTTGTCGTAAGACACTTTAGATGGGTTGAAGTTCTGCACGTAGAAGCAAAAGGC [A24T G46A] was tested. Which fraction ligated did it give?
Answer: 0.553

Question: How did the fraction ligated turn out when GAGACCGCAACTGAAAAGTTGTTTTCACTTGTCGTAAGACACTTTTGATGGGTTGAAGTTCTGCACGTAGAAGCAAAAGGC [A24T G46T] was run?
Answer: 0.2

Question: With GAGACCGCAACTGAAAAGTTGTTTTCACTTGTCGTAAGACACTTTCGATGGGTTGAAGTTCTGCACGTAGAAGCAAAAGGC [A24T G46C] as the variant, how does the fraction ligated read?
Answer: 0.313

Question: For GAGACCGCAACTGAAAAGTTGTTTTCACTTGTGGTAAGACACTTTGGATGGGTTGAAGTTCTGCACGTAGAAGCAAAAGGC [A24T C33G], which fraction ligated is on record?
Answer: 0.336

Question: For GAGACCGCAACTGAAAAGTTGTTTTCACTTGTTGTAAGACACTTTGGATGGGTTGAAGTTCTGCACGTAGAAGCAAAAGGC [A24T C33T], which fraction ligated is on record?
Answer: 0.742

Question: How did the fraction ligated turn out when GAGACCGCAACTGAAAAGTTGTTTTCACTTGTAGTAAGACACTTTGGATGGGTTGAAGTTCTGCACGTAGAAGCAAAAGGC [A24T C33A] was run?
Answer: 0.214

Question: With GAGACCGCAACTGAAAAGTTGTTGTCACTTGTCGTAAGACACTATGGATGGGTTGAAGTTCTGCACGTAGAAGCAAAAGGC [A24G T44A] as the variant, how does the fraction ligated read?
Answer: 0.817

Question: With GAGACCGCAACTGAAAAGTTGTTGTCACTTGTCGTAAGACACTCTGGATGGGTTGAAGTTCTGCACGTAGAAGCAAAAGGC [A24G T44C] as the variant, how does the fraction ligated read?
Answer: 0.763

Question: GAGACCGCAACTGAAAAGTTGTTGTCACTTGTCGTAAGACACTGTGGATGGGTTGAAGTTCTGCACGTAGAAGCAAAAGGC [A24G T44G] was tested. Which fraction ligated did it give?
Answer: 0.791

Question: For GAGACCGCAACTGAAAAGTTGTTTTCACTTGTCGTAAGACACTTTGGATGGGTTGCAGTTCTGCACGTAGAAGCAAAAGGC [A24T A56C], which fraction ligated is on record?
Answer: 0.0299

Question: With GAGACCGCAACTGAAAAGTTGTTTTCACTTGTCGTAAGACACTTTGGATGGGTTGTAGTTCTGCACGTAGAAGCAAAAGGC [A24T A56T] as the variant, how does the fraction ligated read?
Answer: 0.0614

Question: Which fraction ligated does the source give for GAGACCGCAACTGAAAAGTTGTTTTCACTTGTCGTAAGACACTTTGGATGGGTTGGAGTTCTGCACGTAGAAGCAAAAGGC [A24T A56G] here?
Answer: 0.0306

Question: How did the fraction ligated turn out when GAGACCGCAACTGAAAAGTTGTTTTGACTTGTCGTAAGACACTTTGGATGGGTTGAAGTTCTGCACGTAGAAGCAAAAGGC [A24T C26G] was run?
Answer: 0.201

Question: With GAGACCGCAACTGAAAAGTTGTTTTTACTTGTCGTAAGACACTTTGGATGGGTTGAAGTTCTGCACGTAGAAGCAAAAGGC [A24T C26T] as the variant, how does the fraction ligated read?
Answer: 0.124

Question: With GAGACCGCAACTGAAAAGTTGTTTTAACTTGTCGTAAGACACTTTGGATGGGTTGAAGTTCTGCACGTAGAAGCAAAAGGC [A24T C26A] as the variant, how does the fraction ligated read?
Answer: 0.217

Question: Which fraction ligated does the source give for GAGACCGCAACTGAAAAGTTGTTTTCACTTGTCGTAAGACACTTTGGATGGGTTGAGGTTCTGCACGTAGAAGCAAAAGGC [A24T A57G] here?
Answer: 0.729

Question: Which fraction ligated does the source give for GAGACCGCAACTGAAAAGTTGTTTTCACTTGTCGTAAGACACTTTGGATGGGTTGACGTTCTGCACGTAGAAGCAAAAGGC [A24T A57C] here?
Answer: 0.386

Question: With GAGACCGCAACTGAAAAGTTGTTTTCACTTGTCGTAAGACACTTTGGATGGGTTGATGTTCTGCACGTAGAAGCAAAAGGC [A24T A57T] as the variant, how does the fraction ligated read?
Answer: 0.503
